Target: Recombinant human IL-6 (human) (UniProt P05231)
Assay: cell-based or functional assay

Chain of Recombinant human IL-6 (human) (P05231 30-212 limits assumed): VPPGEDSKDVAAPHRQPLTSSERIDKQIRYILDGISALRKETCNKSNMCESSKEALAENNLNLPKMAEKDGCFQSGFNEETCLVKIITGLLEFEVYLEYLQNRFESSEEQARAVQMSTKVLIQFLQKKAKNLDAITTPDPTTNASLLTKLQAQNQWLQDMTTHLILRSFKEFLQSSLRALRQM

IC50 (µg/mL), IL-6 induced TF-1 proliferation: 0.629 µg/mL
B1: ALD518 (antibody, INN chains, looked up, V domains shown)
VH: EVQLVESGGGLVQPGGSLRLSCAASGFSLSNYYVTWVRQAPGKGLEWVGIIYGSDETAYATSAIGRFTISRDNSKNTLYLQMNSLRAEDTAVYYCARDDSSDWDAKFNLWGQGTLVTVSS
VL: AIQMTQSPSSLSASVGDRVTITCQASQSINNELSWYQQKPGKAPKLLIYRASTLASGVPSRFSGSGSGTDFTLTISSLQPDDFATYYCQQGYSLRNIDNAFGGGTKVEIK
